Target: IL-10 receptors IL-10RA and IL-10RB engineered into U2OS osteosarcoma cells (UniProt Q13651)
Assay: cell-based or functional assay

## recombinant human IL-10 (rhIL-10) (from UniProt P22301 19-178) (ligand)
  EC50, luminescence from ligand-induced IL-10RA/IL-10RB receptor dimerization in engineered U2OS cells: 0.0915 nM
